Among the data in patent US20260295010 (published 2026) are Kd values, retold here.

Where two headings read alike, the source gives them in different places.

Experiment in all cases: SPR, 25C
Background: In SPR one partner is held on a chip, and binding of the other changes the refractive index at the surface.

The target in test [1] is T1, IL-12RB2-hFc (human, UniProt Q99665).
T1 chain: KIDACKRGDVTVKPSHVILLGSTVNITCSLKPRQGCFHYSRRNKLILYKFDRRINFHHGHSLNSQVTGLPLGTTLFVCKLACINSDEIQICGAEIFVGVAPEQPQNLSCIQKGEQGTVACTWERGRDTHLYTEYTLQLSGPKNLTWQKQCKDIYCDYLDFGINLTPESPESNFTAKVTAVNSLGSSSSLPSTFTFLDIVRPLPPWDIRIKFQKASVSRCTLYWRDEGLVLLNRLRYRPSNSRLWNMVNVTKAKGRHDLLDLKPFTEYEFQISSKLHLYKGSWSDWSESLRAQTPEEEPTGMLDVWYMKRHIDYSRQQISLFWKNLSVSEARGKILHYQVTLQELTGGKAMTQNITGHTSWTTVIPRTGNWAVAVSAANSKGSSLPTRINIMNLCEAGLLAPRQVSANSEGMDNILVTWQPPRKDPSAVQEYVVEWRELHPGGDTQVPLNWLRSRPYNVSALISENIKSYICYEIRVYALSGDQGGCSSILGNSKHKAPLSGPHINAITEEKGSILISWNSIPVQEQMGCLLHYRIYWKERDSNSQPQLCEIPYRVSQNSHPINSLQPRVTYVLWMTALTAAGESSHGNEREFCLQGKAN

The target in test [2] is T2, IL-12RB1-hFc (human, UniProt P42701).
The target in test [3] is T1, IL-12RB2-hFc.
Test [4] has as its target T2, IL-12RB1-hFc. This is another data set of the same source.

B1: IL-12p70 K265Y (protein)
chain 1: MIWELKKDVYVVELDWYPDAPGEMVVLTCDTPEEDGITWTLDQSSEVLGSGKTLTIQVKEFGDAGQYTCHKGGEVLSHSLLLLHKKEDGIWSTDILKDQKEPKNKTFLRCEAKNYSGRFTCWWLTTISTDLTFSVKSSRGSSDPQGVTCGAATLSAERVRGDNKEYEYSVECQEDSACPAAEESLPIEVMVDAVHKLKYENYTSSFFIRDIIKPDPPKNLQLKPLKNSRQVEVSWEYPDTWSTPHSYFSLTFSVQVQGKSKREKYDRVFTDKTSATVICRKNASISVRAQDRYYSSSWSEWASVPCSGGGSHHHHHH
chain 2: MRNLPVATPDPGMFPSLHHSQNLLRAVSNMLQKARQTLEFYPCTSEEIDHEDITKDKTSTVEACLPLELTKNESCLNSRETSFITNGSSLASRKTSFMMALCLSSIYEDLKMYQVEFKTMNAKLLMDPKRQIFLDQNMLAVIDELMQALNFNSETVPQKSSLEEPDFYKTKIKLCILLHAFRIRAVTIDRVMSYLNAS
In the case of B1, the dissociation constant Kd in test [1] was determined as 4.9 nM; in test [2], 0.51 nM; in test [3], 1.6 nM; in test [4], 0.11 nM.

B2: IL-12p70 K259Y K265Y (protein)
chain 1: MIWELKKDVYVVELDWYPDAPGEMVVLTCDTPEEDGITWTLDQSSEVLGSGKTLTIQVKEFGDAGQYTCHKGGEVLSHSLLLLHKKEDGIWSTDILKDQKEPKNKTFLRCEAKNYSGRFTCWWLTTISTDLTFSVKSSRGSSDPQGVTCGAATLSAERVRGDNKEYEYSVECQEDSACPAAEESLPIEVMVDAVHKLKYENYTSSFFIRDIIKPDPPKNLQLKPLKNSRQVEVSWEYPDTWSTPHSYFSLTFSVQVQGYSKREKYDRVFTDKTSATVICRKNASISVRAQDRYYSSSWSEWASVPCSGGGSHHHHHH
chain 2: MRNLPVATPDPGMFPSLHHSQNLLRAVSNMLQKARQTLEFYPCTSEEIDHEDITKDKTSTVEACLPLELTKNESCLNSRETSFITNGSSLASRKTSFMMALCLSSIYEDLKMYQVEFKTMNAKLLMDPKRQIFLDQNMLAVIDELMQALNFNSETVPQKSSLEEPDFYKTKIKLCILLHAFRIRAVTIDRVMSYLNAS
Consider B2, for which the values for the Kd in test [1] and in test [2] were 7 nM and 1.4 nM, respectively.

B3: IL-12p70 W16A D94K K196E (protein)
chain 1: MIWELKKDVYVVELDAYPDAPGEMVVLTCDTPEEDGITWTLDQSSEVLGSGKTLTIQVKEFGDAGQYTCHKGGEVLSHSLLLLHKKEDGIWSTKILKDQKEPKNKTFLRCEAKNYSGRFTCWWLTTISTDLTFSVKSSRGSSDPQGVTCGAATLSAERVRGDNKEYEYSVECQEDSACPAAEESLPIEVMVDAVHELKYENYTSSFFIRDIIKPDPPKNLQLKPLKNSRQVEVSWEYPDTWSTPHSYFSLTFSVQVQGKSKREKKDRVFTDKTSATVICRKNASISVRAQDRYYSSSWSEWASVPCSGGGSHHHHHH
chain 2: MRNLPVATPDPGMFPSLHHSQNLLRAVSNMLQKARQTLEFYPCTSEEIDHEDITKDKTSTVEACLPLELTKNESCLNSRETSFITNGSSLASRKTSFMMALCLSSIYEDLKMYQVEFKTMNAKLLMDPKRQIFLDQNMLAVIDELMQALNFNSETVPQKSSLEEPDFYKTKIKLCILLHAFRIRAVTIDRVMSYLNAS
In turn, B3 had a dissociation constant (Kd) in test [1] of 2.3 nM.

B4: IL-12p70 W16A K196E (protein)
chain 1: MIWELKKDVYVVELDAYPDAPGEMVVLTCDTPEEDGITWTLDQSSEVLGSGKTLTIQVKEFGDAGQYTCHKGGEVLSHSLLLLHKKEDGIWSTDILKDQKEPKNKTFLRCEAKNYSGRFTCWWLTTISTDLTFSVKSSRGSSDPQGVTCGAATLSAERVRGDNKEYEYSVECQEDSACPAAEESLPIEVMVDAVHELKYENYTSSFFIRDIIKPDPPKNLQLKPLKNSRQVEVSWEYPDTWSTPHSYFSLTFSVQVQGKSKREKKDRVFTDKTSATVICRKNASISVRAQDRYYSSSWSEWASVPCSGGGSHHHHHH
chain 2: MRNLPVATPDPGMFPSLHHSQNLLRAVSNMLQKARQTLEFYPCTSEEIDHEDITKDKTSTVEACLPLELTKNESCLNSRETSFITNGSSLASRKTSFMMALCLSSIYEDLKMYQVEFKTMNAKLLMDPKRQIFLDQNMLAVIDELMQALNFNSETVPQKSSLEEPDFYKTKIKLCILLHAFRIRAVTIDRVMSYLNAS
As to B4, in test [1], binding was characterised by a dissociation constant (Kd) of 2.8 nM.

B5: IL-12p70 K105E K259Y K265Y (protein)
chain 1: MIWELKKDVYVVELDWYPDAPGEMVVLTCDTPEEDGITWTLDQSSEVLGSGKTLTIQVKEFGDAGQYTCHKGGEVLSHSLLLLHKKEDGIWSTDILKDQKEPKNETFLRCEAKNYSGRFTCWWLTTISTDLTFSVKSSRGSSDPQGVTCGAATLSAERVRGDNKEYEYSVECQEDSACPAAEESLPIEVMVDAVHKLKYENYTSSFFIRDIIKPDPPKNLQLKPLKNSRQVEVSWEYPDTWSTPHSYFSLTFSVQVQGYSKREKYDRVFTDKTSATVICRKNASISVRAQDRYYSSSWSEWASVPCSGGGSHHHHHH
chain 2: MRNLPVATPDPGMFPSLHHSQNLLRAVSNMLQKARQTLEFYPCTSEEIDHEDITKDKTSTVEACLPLELTKNESCLNSRETSFITNGSSLASRKTSFMMALCLSSIYEDLKMYQVEFKTMNAKLLMDPKRQIFLDQNMLAVIDELMQALNFNSETVPQKSSLEEPDFYKTKIKLCILLHAFRIRAVTIDRVMSYLNAS
With B5, the dissociation constant (Kd) in test [1] came to 4 nM; in test [2], 1.8 nM.

B6: IL-12p70 K105E K265Y (protein)
chain 1: MIWELKKDVYVVELDWYPDAPGEMVVLTCDTPEEDGITWTLDQSSEVLGSGKTLTIQVKEFGDAGQYTCHKGGEVLSHSLLLLHKKEDGIWSTDILKDQKEPKNETFLRCEAKNYSGRFTCWWLTTISTDLTFSVKSSRGSSDPQGVTCGAATLSAERVRGDNKEYEYSVECQEDSACPAAEESLPIEVMVDAVHKLKYENYTSSFFIRDIIKPDPPKNLQLKPLKNSRQVEVSWEYPDTWSTPHSYFSLTFSVQVQGKSKREKYDRVFTDKTSATVICRKNASISVRAQDRYYSSSWSEWASVPCSGGGSHHHHHH
chain 2: MRNLPVATPDPGMFPSLHHSQNLLRAVSNMLQKARQTLEFYPCTSEEIDHEDITKDKTSTVEACLPLELTKNESCLNSRETSFITNGSSLASRKTSFMMALCLSSIYEDLKMYQVEFKTMNAKLLMDPKRQIFLDQNMLAVIDELMQALNFNSETVPQKSSLEEPDFYKTKIKLCILLHAFRIRAVTIDRVMSYLNAS
Consider B6, for which the Kd in test [1] was found to be 1.6 nM; in test [2], 1.1 nM.

B7: IL-12p70 W16A D94K K196E K265Y (protein)
chain 1: MIWELKKDVYVVELDAYPDAPGEMVVLTCDTPEEDGITWTLDQSSEVLGSGKTLTIQVKEFGDAGQYTCHKGGEVLSHSLLLLHKKEDGIWSTKILKDQKEPKNKTFLRCEAKNYSGRFTCWWLTTISTDLTFSVKSSRGSSDPQGVTCGAATLSAERVRGDNKEYEYSVECQEDSACPAAEESLPIEVMVDAVHELKYENYTSSFFIRDIIKPDPPKNLQLKPLKNSRQVEVSWEYPDTWSTPHSYFSLTFSVQVQGKSKREKYDRVFTDKTSATVICRKNASISVRAQDRYYSSSWSEWASVPCSGGGSHHHHHH
chain 2: MRNLPVATPDPGMFPSLHHSQNLLRAVSNMLQKARQTLEFYPCTSEEIDHEDITKDKTSTVEACLPLELTKNESCLNSRETSFITNGSSLASRKTSFMMALCLSSIYEDLKMYQVEFKTMNAKLLMDPKRQIFLDQNMLAVIDELMQALNFNSETVPQKSSLEEPDFYKTKIKLCILLHAFRIRAVTIDRVMSYLNAS
With B7, the Kd in test [1] worked out at 4.6 nM.

The Kd is a measure of binding affinity in units of concentration. A low value points to tighter binding.
